Data on four molecules can be found in publication PMC6778148 (2019).

Test [1] addresses T1, PSD-95-12, purified tandem PDZ domains of PSD-95 (rat, UniProt P31016 61-249). Briefly: SPR. In general terms: SPR reads the build-up and loss of mass on a sensor chip optically.
Test [2] addresses T1, PSD-95-12, purified tandem PDZ domains ….
Test [3] addresses SAP97-12, purified tandem PDZ domains of SAP97 (rat, UniProt Q62696 220-408). The experiment in a line: competition against divalent ligand.
Test [4] deals with PSD-93-12, purified tandem PDZ domains of PSD-93 (rat, UniProt Q63622 93-282). The experiment in a line: competition against divalent ligand.
Test [5] has as its target T2, SAP102-12, purified tandem PDZ domains of SAP102 (rat, UniProt Q62936 145-333).
T2 chain: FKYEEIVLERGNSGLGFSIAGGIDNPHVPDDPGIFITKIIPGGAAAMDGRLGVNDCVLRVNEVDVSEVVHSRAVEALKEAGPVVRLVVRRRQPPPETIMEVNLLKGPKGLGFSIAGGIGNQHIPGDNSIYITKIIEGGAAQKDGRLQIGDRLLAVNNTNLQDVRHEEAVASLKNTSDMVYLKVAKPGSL
Briefly: competition against divalent ligand.

Test [6] addresses T1, PSD-95-12, purified tandem PDZ domains …. Briefly: ITC. For orientation: In ITC the heat of successive injections is recorded.

T1 sequence (P31016 61-249): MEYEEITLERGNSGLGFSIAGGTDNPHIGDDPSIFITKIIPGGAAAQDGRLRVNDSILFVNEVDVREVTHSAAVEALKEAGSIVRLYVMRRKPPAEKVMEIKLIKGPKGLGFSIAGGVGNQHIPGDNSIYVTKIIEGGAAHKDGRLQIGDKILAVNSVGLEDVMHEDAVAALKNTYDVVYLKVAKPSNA
Sequence of PSD-93-12, purified tandem PDZ domains of PSD-93 (Q63622 93-282): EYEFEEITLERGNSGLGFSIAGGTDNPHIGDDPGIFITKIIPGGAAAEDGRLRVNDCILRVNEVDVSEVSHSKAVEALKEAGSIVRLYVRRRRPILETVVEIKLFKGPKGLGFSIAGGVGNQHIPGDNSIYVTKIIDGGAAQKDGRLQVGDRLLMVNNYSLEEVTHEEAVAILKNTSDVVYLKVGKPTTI
Sequence of SAP97-12, purified tandem PDZ domains of SAP97 (Q62696 220-408): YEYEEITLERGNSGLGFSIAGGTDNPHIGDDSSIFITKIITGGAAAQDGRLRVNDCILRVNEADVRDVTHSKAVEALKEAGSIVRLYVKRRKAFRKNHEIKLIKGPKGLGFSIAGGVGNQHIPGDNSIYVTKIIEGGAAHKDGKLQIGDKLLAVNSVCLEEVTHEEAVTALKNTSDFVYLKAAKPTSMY

B1: biotinylated Xph20 (designed binder)
chain: SSVSSVPTKLEVVAATPTSLLISWDAVAKNVKVGYYRITYGETGGNSPVQEFTVPGSSSTATISGLKPGVDYTITVYANGVLSKMVLPISINYRT
modifications: biotin on the biotin acceptor peptide
As a reminder, the koff is the rate constant with which the complex falls apart. For B1, the koff in test [1] worked out at 0.068 s⁻¹.

B2: Xph20-ETWV (designed binder)
chain: MASHHHHHHHHHHENLYFQSGSGSSVSSVPTKLEVVAATPTSLLISWDAVAKNVKVGYYRITYGETGGNSPVQEFTVPGSSSTATISGLKPGVDYTITVYANGVLSKMVLPISINYRTLEGGSGGSGGSGGSGGSGGSGGSGGSGGSGGSGGSGGSGTETWV
The term Ki denotes the dissociation constant of the complex between target and ligand, obtained from inhibition or displacement. As for B2, the Ki in test [2] was determined as 36 nM; in test [3] it was 900 nM; in test [4], 261 nM; in test [5], 1440 nM.

B3: Xph18, evolved ^10FN3 domain (recombinant) (designed binder)
chain: SSVSSVPTKLEVVAATPTSLLISWDAHSRMAWVNYYRITYGETGGNSPVQEFTVPGSSSTATISGLSPGVDYTITVYANGGGFRRGMAPISINYRT
The Kd is the concentration at which binding is half-saturated. Low readings indicate higher affinity, high ones lower affinity. Turning to B3, the Kd in test [6] was 820 nM.

B4: Xph15, evolved ^10FN3 domain (recombinant) (designed binder)
chain: SSVSSVPTKLEVVAATPTSLLISWDAGPRNVSYYRITYGETGGNSPVQEFTVPGSSSTATISGLSPGVDYTITVYASGHVSTLMTPISINYRT
In test [6], B4 registered a Kd of 2200 nM. This Kd is about 2.7-fold higher than that of the molecule before.
